From patent US20170355953A1 (OSAKA UNIVERSITY, published 2017)

Target: T1, N-terminally TARGET-tagged human afamin (human, UniProt P43652 22-599)
T1 construct: also called hAFM; (TARGET-tagged) afamin; not shown: N-terminal TARGET tag
T1 sequence (looked up): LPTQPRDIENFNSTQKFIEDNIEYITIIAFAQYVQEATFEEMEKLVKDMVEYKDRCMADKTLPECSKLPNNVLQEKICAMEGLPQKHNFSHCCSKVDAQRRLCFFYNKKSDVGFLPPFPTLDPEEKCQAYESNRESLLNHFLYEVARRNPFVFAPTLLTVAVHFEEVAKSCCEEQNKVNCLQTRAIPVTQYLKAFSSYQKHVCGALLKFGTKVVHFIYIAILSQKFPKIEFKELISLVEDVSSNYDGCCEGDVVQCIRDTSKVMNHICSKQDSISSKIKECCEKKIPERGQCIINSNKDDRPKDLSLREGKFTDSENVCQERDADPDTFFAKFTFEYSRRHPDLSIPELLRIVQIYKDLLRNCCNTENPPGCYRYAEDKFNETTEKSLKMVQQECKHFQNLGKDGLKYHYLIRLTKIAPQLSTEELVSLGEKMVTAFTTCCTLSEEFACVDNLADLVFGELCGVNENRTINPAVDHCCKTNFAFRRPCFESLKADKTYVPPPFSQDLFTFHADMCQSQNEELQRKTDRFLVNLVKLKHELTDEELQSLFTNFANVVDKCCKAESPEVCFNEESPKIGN
Experiment: co-immunoprecipitation on P20.1-sepharose (TARGET tag on afamin), western blotting with biotin-modified NZ-1
Procedure: The transfected cells of each type were cultured for 90 hours in a serum-free culture medium, and the supernatants were separately harvested. To 1 mL of each supernatant, 20 μL of NZ-1-sepharose or P20.1-sepharose was added, and the mixture was rotated end over end for 1 hour. The sepharose was precipitated by centrifugation, and the supernatant was removed. After the sepharose was washed 3 times with 1 mL of TBS, 30 μL of SDS sample buffer was added, and elution was performed under heating at 95° C. for 2 minutes. The eluate was subjected to western blotting using biotin-modified NZ-1.

B1: N-terminally PA-tagged human Wnt3 (ligand)
chain: GVAMPGAEDDVVGYPIWWSLALGQQYTSLGSQPLLCGSIPGLVPKQLRFCRNYIEIMPSVAEGVKLGIQECQHQFRGRRWNCTTIDDSLAIFGPVLDKATRESAFVHAIASAGVAFAVTRSCAEGTSTICGCDSHHKGPPGEGWKWGGCSEDADFGVLVSREFADARENRPDARSAMNKHNNEAGRTTILDHMHLKCKCHGLSGSCEVKTCWWAQPDFRAIGDFLKDKYDSASEMVVEKHRESRGWVETLRAKYSLFKPPTERDLVYYENSPNFCEPNPETGSFGTRDRTCNVTSHGIDGCDLLCCGRGHNTRTEKRKEKCHCIFHWCCYVSCQECIRIYDVHTCK
binding result: binds
